According to paper PMC7442640, “The oligomeric assembly of galectin-11 is critical for anti-parasitic activity in sheep (Ovis aries)” (Communications Biology, 2020):

Legend:
[1] = target: galectin-11 (LGALS-11) isoform 1 of sheep (Ovis aries) (sheep (Ovis aries)); assay: AUC; sedimentation velocity, c(s) analysis with SEDFIT; 0.10, 0.30 and 0.90 mg/ml; 20 mM Tris-HCl pH 8.0, 100 mM NaCl, 0.5 mM TCEP; 20 °C; absorbance at 280 nm
[2] = target: galectin-11 (LGALS-11) isoform 1 of sheep (Ovis aries) (sheep (Ovis aries))
[3] = target: T1, LGALS-11 isoform 1 (galectin-11) (Ovis aries, UniProt A0A0A7EMW6); assay: X-ray crystallography; type: binding; conditions: 2.40 Å complex structure; carbohydrate recognition domain (R53, N64, E74 hydrogen bonds; V62, W71 contacts)
T1 construct: gene LGALS15; recombinant, modified pET-28, E. coli BL21(DE3); alignment over 137 residues; homotetramer; natural variant with L9 and D124
T1 sequence (A0A0A7EMW6 1-137): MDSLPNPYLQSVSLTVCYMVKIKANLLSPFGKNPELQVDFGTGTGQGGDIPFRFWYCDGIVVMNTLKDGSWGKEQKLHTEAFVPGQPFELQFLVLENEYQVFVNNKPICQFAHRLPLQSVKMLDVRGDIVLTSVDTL

[4] = target: galectin-11 (LGALS-11) isoform 2 of sheep (Ovis aries) (sheep (Ovis aries)); assay: AUC; sedimentation velocity, c(s) analysis with SEDFIT; 0.10, 0.30 and 0.90 mg/ml; 20 mM Tris-HCl pH 8.0, 100 mM NaCl, 0.5 mM TCEP; 20 °C; absorbance at 280 nm
[5] = target: galectin-11 (LGALS-11) isoform 2 of sheep (Ovis aries) (sheep (Ovis aries))

“galectin-11 (LGALS-11) isoform 1 of sheep (Ovis aries) (natural protein)” was tested, and the stoichiometry N [1] was 4, the L4s of H. contortus with cuticular damage, shrunken soma and internal granules after 72 h with isoform 1 [2] was over 95% and the xL3s of H. contortus that did not develop to L4s when exposed to isoform 1 (1.0 mg/ml) [2] was 85%.
For `OC[C@H]1O[C@@H](O)[C@H](O)[C@@H](O)[C@H]1O` [β-D-galactose], the X-ray crystallography [3] was “This galactose bound directly to the residues present in the four adjacent strands”.
“galectin-11 (LGALS-11) isoform 2 of sheep (Ovis aries) (natural protein)” gave a stoichiometry N [4] of 2 and an L4s of H. contortus with internal or cuticular damage after 72 h with isoform 2 [5] of under 10%.
